The values below come from the supplement of paper PMC9170038.

This data set concerns K4 kissing-loop RNA reporter. The data set can be described thus: apparent KD of K4 kissing-loop reporter; higher = weaker reporter binding. Conditions: Eterna round: R107. As for the experimental part:
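RNA-MaP round R107: designed RNA switches with theophylline, tryptophan, arginine or FMN aptamers are transcribed on-chip within common flanks. They are titrated with a labelled K4 kissing-loop RNA reporter in RNA-MaP buffer (100 mM Tris pH 7.5, 80 mM KCl, 4 mM MgCl2), without ligand or with the indicated ligand. Median apparent KD per design.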

The mark [1] stands for this setting: input ligand: theophylline 20 uM.
Where [2] appears, read: input ligand: tryptophan 2.4 mM.
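Note: bound reporter read as fluorescence of individual clusters on recovered sequencing chips by microscopy, with normalized cluster intensities fitted with a binding model.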

Regarding “UUACGAGUGAUGUUCGAAUAAAUCCAUUCAGAGGAUAUAGUAUUAACUAGAAGGCUGAAACCAACUUCGAGUCAUGUUCGAGGAU [Same State FMN A GF 2]”, the “apparent KD of K4 kissing-loop reporter” value by setting is: (input ligand: FMN 200 uM) 271 nM; (input ligand: arginine 13.2 mM) 324 nM; (input ligand: none) 277 nM; under setting [1], 514 nM; under setting [2], 269 nM.

Take “UUAGAGAUCUCAGGAUAUCAGUGAUGUUGGUGUAAAGAUCUGAGAUAGAAUUCUAUCUCAGAUCAAUGAGAAGGGAGAUCUCAUU [AK3.2 Exc FMN B]”: the “apparent KD of K4 kissing-loop reporter” value (input ligand: FMN 200 uM) worked out at 338 nM; the “apparent KD of K4 kissing-loop reporter” value (input ligand: arginine 13.2 mM) turned out to be 179 nM; the “apparent KD of K4 kissing-loop reporter” value (input ligand: none) was 192 nM; the “apparent KD of K4 kissing-loop reporter” value under setting [1] came out at 219 nM; the “apparent KD of K4 kissing-loop reporter” value under setting [2] is 174 nM.

For “UUAGAGAUCUCAGGAUAUCAGUGAUGUUGGUGUUAAGAUCUGAGAUAGAAUUCUAUCUCAGAUCAAUGAGAAGGGAGAUCUCAUU [AK3 Exc FMN B]”, the “apparent KD of K4 kissing-loop reporter” value worked out at 296 nM (input ligand: FMN 200 uM); 132 nM (input ligand: arginine 13.2 mM); 167 nM (input ligand: none); 161 nM under setting [1]; 152 nM under setting [2].

With “UUAGCUCUAUAGAGCAAGAGGUAUACUGAUACCAGAGGCUAUAGCCUCCCUUGGCAGCGGAUCGAGUGAUGUUCGUAACCUCAUU [AK4.5 SS Theophylline A]”, the “apparent KD of K4 kissing-loop reporter” value amounted to 616 nM (input ligand: FMN 200 uM); 661 nM (input ligand: arginine 13.2 mM); 812 nM (input ligand: none); 724 nM under setting [1]; 433 nM under setting [2].

Turning to “UUAGGAGUGGGAGGAUAUCCUAAUGUGGGUGAUGUUAGUGAUGUUGAAAGUGUAGUGAUGUUGUGCGGAGAAGGUCCAGUGUUGA [BDazzled - #11 - Exc. FMN B]”, the “apparent KD of K4 kissing-loop reporter” value (input ligand: FMN 200 uM) came to 212 nM; the “apparent KD of K4 kissing-loop reporter” value (input ligand: arginine 13.2 mM) turned out to be 133 nM; the “apparent KD of K4 kissing-loop reporter” value (input ligand: none) worked out at 210 nM; the “apparent KD of K4 kissing-loop reporter” value under setting [1] amounted to 192 nM; the “apparent KD of K4 kissing-loop reporter” value under setting [2] was determined as 157 nM.

As to “UUAUAUUUUAUAUUUAGUAGAGCUCUCGCUCGAGGACCGGUACGGCCGCCACUCGAGUGAUGUUCGAGUGGGAGAGCUCUACAUU [AK3.3 EXC Tryptophan A]”, the “apparent KD of K4 kissing-loop reporter” value is 108 nM (input ligand: FMN 200 uM); 99.5 nM (input ligand: arginine 13.2 mM); 94.9 nM (input ligand: none); 100 nM under setting [1]; 181 nM under setting [2].

For “UUAUCUAUAUUCGAUACCAGUACCCUGUGUGUUGAUCCUUUUAUAAGUGAUGUUUAUGAGUACCCUUGGCAGCGGGUAUGGGUUU [KL-XTheo-B17]”, the “apparent KD of K4 kissing-loop reporter” value runs as follows: (input ligand: FMN 200 uM) 815 nM; (input ligand: arginine 13.2 mM) 734 nM; (input ligand: none) 883 nM; under setting [1], 944 nM; under setting [2], 712 nM.

As to “UUAUUAAUAACAGAUACCAGUCCAGAAUGAAAACUAUAGUGAUGUUAUAAUAAAGGGAAGGACCCUUGGCAGCUGUAAUAUAUUU [AstrosSSTheB#2]”, the “apparent KD of K4 kissing-loop reporter” value worked out at 525 nM (input ligand: FMN 200 uM); 427 nM (input ligand: arginine 13.2 mM); 497 nM (input ligand: none); 452 nM under setting [1]; 394 nM under setting [2].

For “UUCAGGUGUUCGGCCGCCACUCCAGUGAUGUUGGAGUGGCUUCACAAGGACCAGGACAAUGUAAGGAGGACCGGGAAUAUCGCAG [Leerat]”, the “apparent KD of K4 kissing-loop reporter” value is 143 nM (input ligand: FMN 200 uM); 110 nM (input ligand: arginine 13.2 mM); 131 nM (input ligand: none); 115 nM under setting [1]; 125 nM under setting [2].

For “UUCGUAGUAGGAAACUAUUACGAAAAGGAAGGAGCGGCGAAGAAGCCAGGUAGGUCGCCUAUUGACAGUGAUGUUGUUAUAUAGA [#10]”, the “apparent KD of K4 kissing-loop reporter” value turned out to be 144 nM (input ligand: FMN 200 uM); 239 nM (input ligand: arginine 13.2 mM); 176 nM (input ligand: none); 205 nM under setting [1]; 162 nM under setting [2].
